This is an account of results in patent publication US20160083466A1 (Regeneron, published 2016).

The IC50 is the concentration that gives 50% inhibition. As usually defined, the Kd is the equilibrium constant for the complex coming apart. Usually koff stands for the rate constant with which the complex falls apart. A word on the kon: it is the rate constant with which the complex forms. One may read the t½ as how long it takes for the measured level to halve.

Assay [1] addresses T1, human IL-25 expressed with a C-terminal myc-myc-hexahistidine tag (human).
T1 construct: also called hIL-25-MMH; Human IL-25-MMH
T1 chain: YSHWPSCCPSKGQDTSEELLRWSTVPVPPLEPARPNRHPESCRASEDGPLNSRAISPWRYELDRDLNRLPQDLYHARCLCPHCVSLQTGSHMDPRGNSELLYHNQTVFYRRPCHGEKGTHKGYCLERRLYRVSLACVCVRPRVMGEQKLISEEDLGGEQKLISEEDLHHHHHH
The assay can be described thus: competition ELISA, 2 nM hIL-25-MMH binding to coated hIL-17RB-hFc; (*) below theoretical bottom of the assay. (An ELISA detects its analyte on a solid surface through an enzyme-linked reagent.)
Method: (§1) Data analysis was performed using a sigmoidal dose-response model within Prism™ software (GraphPad). […] The absorbance values of the wells containing the highest concentration for each antibody were used to determine the percent maximum blockade.

In assay [2] the target is T2, mouse IL-25 expressed with a C-terminal myc-myc-hexahistidine tag (mouse).
T2 construct: also called Mouse IL-25-MMH; mIL-25-MMH
T2 chain: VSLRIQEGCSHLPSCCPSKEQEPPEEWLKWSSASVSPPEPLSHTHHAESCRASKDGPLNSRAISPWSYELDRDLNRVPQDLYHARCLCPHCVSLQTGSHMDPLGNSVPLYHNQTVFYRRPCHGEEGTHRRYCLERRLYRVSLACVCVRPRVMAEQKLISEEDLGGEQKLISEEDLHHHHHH
In words: SPR Biacore, antibody captured, 37C.
Method: (§2) Equilibrium dissociation constants (KD values) for IL-25 binding to purified anti-IL-25 antibodies were determined using a real-time surface plasmon resonance biosensor assay on a Biacore 4000 instrument (GE Healthcare). […] All the IL-25 reagents were expressed with a C-terminal myc-myc-hexahistidine tag (referred to herein as “IL-25-MMH”). […] Kinetic association (kₐ) and dissociation (kd) rate constants were determined by fitting the real-time sensorgrams to a 1:1 binding model using Scrubber 2.0c curve fitting software.

In assay [3] the target is T3, rat IL-25 expressed with a C-terminal myc-myc-hexahistidine tag (rat).
T3 construct: also called Rat IL-25-MMH
T3 chain: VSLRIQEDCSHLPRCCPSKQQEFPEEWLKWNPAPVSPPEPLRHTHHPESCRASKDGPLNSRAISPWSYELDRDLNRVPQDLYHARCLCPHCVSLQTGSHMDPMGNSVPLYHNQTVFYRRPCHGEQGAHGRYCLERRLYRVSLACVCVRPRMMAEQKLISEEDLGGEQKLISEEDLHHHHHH
In words: SPR Biacore, antibody captured, 37C. In general terms: SPR reads the build-up and loss of mass on a sensor chip optically.
Method: as §2

Assay [4] concerns the target T1, human IL-25 expressed with a C-terminal …. The assay can be described thus: cell-based or functional assay.
Assay [5] addresses T2, mouse IL-25 expressed with a C-terminal …. The assay can be described thus: SPR Biacore, antibody captured, 25C.
Method: as §2
Assay [6] has as its target T1, human IL-25 expressed with a C-terminal …. The assay can be described thus: competition ELISA, 2 nM hIL-25-MMH binding to coated hIL-17RB-hFc.
Method: as §1
Assay [7] shares this target. In words: cell-based or functional assay.
In assay [8] the target is T4, monkey IL-25 expressed with a C-terminal myc-myc-hexahistidine tag (M. fascicularis (cynomolgus monkey)).
T4 chain: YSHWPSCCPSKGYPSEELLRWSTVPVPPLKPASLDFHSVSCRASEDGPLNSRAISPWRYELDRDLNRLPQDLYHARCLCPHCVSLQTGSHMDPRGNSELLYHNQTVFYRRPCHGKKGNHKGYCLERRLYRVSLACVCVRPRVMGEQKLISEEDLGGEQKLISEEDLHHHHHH
In words: cell-based or functional assay.

In assay [9] the target is T1, human IL-25 expressed with a C-terminal …. The assay can be described thus: BLI Octet, hIL-25-MMH captured on anti-Penta-His sensor, 25C. A general note: In BLI a coated tip is dipped into the sample, and binding shifts an interference pattern.
Method: Binding competition between anti-IL-25 monoclonal antibodies was determined using a real time, label-free bio-layer interferometry assay on an Octet QK384 biosensor (Pall ForteBio Corp.).
The biosensors were washed in HBST kinetics buffer in between every step of the experiment. The real-time binding response was monitored during the course of the experiment and the binding response at the end of every step was recorded.
The target of assay [10] is T4, monkey IL-25 expressed with a …. In words: SPR Biacore, antibody captured, 37C.
Method: as §2
In assay [11] the target is T3, rat IL-25 expressed with a C-terminal …. In words: SPR Biacore, antibody captured, 25C.
Method: as §2
Assay [12] concerns the target T2, mouse IL-25 expressed with a C-terminal …. The assay can be described thus: cell-based or functional assay.
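Throughout, for 100 nM Monkey IL-25-MMH Bound (RU): biacore 4000 surface plasmon resonance biosensor measuring binding of IL-25-MMH to purified anti-IL-25 antibodies.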

B1: H4H10864P (antibody, human IgG4, V domains shown)
VH: QVQLQESGPGLVKPSETLSLTCTVSGGSISNYFWSWIRQPPGKGLEWIGFNYNSGSTNYNPSLKSRVTISVDTSKNQFSLKLSSVTAADTAVYYCARGYNWNYEIAWFDPWGQGTLVTVSS
VL: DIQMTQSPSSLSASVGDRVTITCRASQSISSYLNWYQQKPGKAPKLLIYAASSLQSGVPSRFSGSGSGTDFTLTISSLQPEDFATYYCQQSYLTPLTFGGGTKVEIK
notes: H4H prefix = human IgG4 Fc
Regarding B1, in assay [1], the IC50 was 0.26 nM. The “100 nM Mouse IL-25-MMH Bound (RU)” value in [2] amounted to 1 RU. For the same molecule, the “100 nM Rat IL-25-MMH Bound (RU)” value in assay [3] was found to be 1 RU. Further, in [4], the “IC50 values of antibodies for blocking IL-5 release from Donor #727058-059” value turned out to be 1.15 nM and the “IC50 values of antibodies for blocking IL-5 release from Donor #727060” value came to 0.677 nM. The “100 nM Mouse IL-25-MMH Bound (RU)” value in assay [5] was -1 RU. Moreover, the “% Maximum blocking of 200 nM antibody” value in assay [6] is 88%. For the same molecule, the “IC50, luciferase reporter cells, 5 pM hIL-25-MMH” value (“IC50 … 5 pM hIL-25-MMH” for short) in assay [7] was 3.6e-11 M. For the same molecule, the “IC50, luciferase reporter cells, 12 pM MfIL-25-MMH” value (shortened to “IC50 … 12 pM MfIL-25-MMH”) in [8] is 2.6e-11 M. Besides, the “50 ug/mL mAb-1 Binding (nm)” value in assay [9] was 0.84 nm. In [10], the “100 nM Monkey IL-25-MMH Bound (RU)” value was found to be 94 RU, the Kd came to 0.0436 nM, the koff is 0.00019 s⁻¹ and the kon stood at 4.35e+06 M⁻¹ s⁻¹. The t½ in [10] was 1.02 h. Further, the “100 nM Rat IL-25-MMH Bound (RU)” value in assay [11] was -1 RU.

B2: H4H10863P (antibody, human IgG4, V domains shown)
VH: QVQLVQSGAEVKKPGASVKVSCKASGYTFSSYGISWVRQAPGQGLEWMGWISAYNDNTQYAQKFQGRVTMTTDTSTSTAYMELRSLRSDDTAVYYCARVPLQWFGESFDHWGQGTLVTVSS
VL: DIQMTQSPSSLSASVGDRVTITCRASQDINNYLNWFQQKPGKAPKLLIFSTSSLQSGVPSRFSGSGSGTDFTLTISSLQSEDFATYYCQQTFITPLTFGGGTKVEIK
notes: H4H prefix = human IgG4 Fc
In turn, B2 registered an IC50 in assay [1] of 0.92 nM. In addition, in assay [2], the “100 nM Mouse IL-25-MMH Bound (RU)” value was determined as 37 RU, binding was put at a Kd of 1.14 nM, the koff came out at 0.000153 s⁻¹ and the kon is 134000 M⁻¹ s⁻¹. In addition, in assay [2], the t½ was 1.27 h. Besides, in assay [3], the “100 nM Rat IL-25-MMH Bound (RU)” value amounted to 41 RU, the Kd turned out to be 0.72 nM, the koff came to 0.000341 s⁻¹ and the kon turned out to be 474000 M⁻¹ s⁻¹. Also, the t½ in assay [3] was 0.567 h. Besides, in [5], the “100 nM Mouse IL-25-MMH Bound (RU)” value amounted to 22 RU, binding was put at a Kd of 2.67 nM, the koff was found to be 0.000149 s⁻¹ and the kon worked out at 55700 M⁻¹ s⁻¹. Also, the t½ in [5] is 1.3 h. The “% Maximum blocking of 200 nM antibody” value in assay [6] stood at 87%. In addition, in assay [7], the “IC50 … 5 pM hIL-25-MMH” value amounted to 6.9e-10 M. The “IC50, luciferase reporter cells, 10 pM mIL-25-MMH” value in assay [12] came out at 4.3e-09 M. The “IC50 … 12 pM MfIL-25-MMH” value in assay [8] came out at 3.5e-10 M. Moreover, the “50 ug/mL mAb-1 Binding (nm)” value in [9] amounted to 1.13 nm. In assay [10], the “100 nM Monkey IL-25-MMH Bound (RU)” value came out at 51 RU, the Kd is 0.0685 nM, the koff came to 8.07e-05 s⁻¹ and the kon is 1.18e+06 M⁻¹ s⁻¹. The molecule also returned a t½ in [10] of 2.38 h. Besides, in assay [11], the “100 nM Rat IL-25-MMH Bound (RU)” value is 34 RU, binding was characterised by a dissociation constant (Kd) of 1.07 nM, the koff worked out at 0.000164 s⁻¹ and the kon was 153000 M⁻¹ s⁻¹. For the same molecule, the t½ in assay [11] was 1.17 h.

B3: H4H10900P (antibody, human IgG4, V domains shown)
VH: QVQLQESGPGLVRPSETLSLICTVSGGSINSYYWSWIRQPPGKGLEWIGYIYYSGSTNYNPSLKSRVTISGDTSKNQFSLKLSSVTAADTAVYYCARGVIWNYELREFDYWGQGTLVTVSS
VL: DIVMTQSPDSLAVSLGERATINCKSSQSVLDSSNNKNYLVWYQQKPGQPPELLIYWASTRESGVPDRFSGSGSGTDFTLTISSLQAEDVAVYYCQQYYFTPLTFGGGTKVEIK
notes: H4H prefix = human IgG4 Fc
As to B3, the IC50 in assay [1] stood at 0.2 nM. In assay [2], the “100 nM Mouse IL-25-MMH Bound (RU)” value was 2 RU. Besides, the “100 nM Rat IL-25-MMH Bound (RU)” value in assay [3] was found to be 2 RU. Further, in [4], the “IC50 values of antibodies for blocking IL-5 release from Donor #727058-059” value amounted to 0.0392 nM and the “IC50 values of antibodies for blocking IL-5 release from Donor #727060” value was 0.578 nM. In addition, in [5], the “100 nM Mouse IL-25-MMH Bound (RU)” value stood at 0 RU and the binding result is “no binding (tested: 100 nM)”. For the same molecule, the “% Maximum blocking of 200 nM antibody” value in [6] was determined as 90%. In addition, in assay [7], the “IC50 … 5 pM hIL-25-MMH” value is 3.1e-11 M. Moreover, the “IC50 … 12 pM MfIL-25-MMH” value in assay [8] is 2.2e-11 M. Also, the “50 ug/mL mAb-1 Binding (nm)” value in assay [9] came out at 0.68 nm. Further, in [10], the “100 nM Monkey IL-25-MMH Bound (RU)” value was found to be 50 RU, the equilibrium dissociation constant (Kd) is 0.0244 nM, the koff was 7.49e-05 s⁻¹ and the kon worked out at 3.07e+06 M⁻¹ s⁻¹. Also, in assay [10], the t½ was 2.57 h. For the same molecule, in assay [11], the “100 nM Rat IL-25-MMH Bound (RU)” value worked out at 0 RU and the binding result is listed as “no binding (tested: 100 nM)”.
